54 variants from the RNAGym collection of RNA variant scans (doi:10.7554/elife.80360) can be followed below.

The chains are these.
B1: Twister Ribozyme (parent)
chain: AACACUGCCAAUGCCGGUCCCAAGCCCGGAUAAAAGUGGAGGGGGCGG

Variants of B1 are the subject of the series. In words: self-cleavage, relative activity (ratio to wild type); higher = more cleavage; co-transcriptional.
For the variant AAGACUGCGAAUGCCGGUCCCAAGCCCGGAUAAAAGUGGAGGGGGCGG, the self-cleavage was 0.139. Turning to AAGACUGCAAAUGCCGGUCCCAAGCCCGGAUAAAAGUGGAGGGGGCGG, the self-cleavage worked out at 0.0934. As for AACACUGCCAAUGCCGAUCCAAAGCCCGGAUAAAAGUGGAGGGGGCGG, the self-cleavage worked out at 0.101.

Regarding AACACUGCCAAUGCCGUUCUCAAGCCCGGAUAAAAGUGGAGGGGGCGG, the self-cleavage is 0.167.

Regarding AACGCUGCCAAUGCCGGUCCCAAGCCCGGAUAAAAGUGGAUGGGGCGG, the self-cleavage worked out at 0.405. Take AUCACUGCCAAUGCCGGUCCAAAGCCCGGAUAAAAGUGGAGGGGGCGG: the self-cleavage amounted to 0.0621. Regarding AACACUGCCACUGCCGGUCCCAAGCCCGGAUAAAAGUUGAGGGGGCGG, the self-cleavage turned out to be 1.03.

As to AACACUGCCAAUGCCGGUCCCAAUCCCGGAUAAAAGUUGAGGGGGCGG, the self-cleavage came out at 0.0819. Regarding AACACUGCCAAUCCCGGUCCCAAGCCCGGAUAAAAGUGGAGGCGGCGG, the self-cleavage worked out at 0.105. AUCACUGCCAAUGCCGGUCCCAAACCCGGAUAAAAGUGGAGGGGGCGG: the self-cleavage turned out to be 0.112. AUCACUGCCAAUGCCGGUCCCCAGCCCGGAUAAAAGUGGAGGGGGCGG: the self-cleavage was found to be 0.311.

On to AACACUGCGAAUGCCGGUUCCAAGCCCGGAUAAAAGUGGAGGGGGCGG, for which the self-cleavage was determined as 0.144. For the variant ACCACUGCCAAUUCCGGUCCCAAGCCCGGAUAAAAGUGGAGGGGGCGG, the self-cleavage is 0.0549. With AACACUGCCAAUGCCGGUCCCAAGCCCGGCUAAAAGUGGAGGGGGCUG, the self-cleavage is 0.48. AACACUGCCACUGCCGGUCCCAAGCCCGGACAAAAGUGGAGGGGGCGG: the self-cleavage was 0.876. In the case of AACACUGCCAAUGCCGGUCUCAAGCCCGGAUAAAAGUGGAGGGAGCGG it was 1. In the case of AACAAUGCCCAUGCCGGUCCCAAGCCCGGAUAAAAGUGGAGGGGGCGG it was 0.722; in that of AACACUGCCAAUGCCGGUCCCAAGCCCGGAUAAAAGUAGAGGGGGCGG, 0.965.

Regarding AACACUGCCAAUGCCGGUCCCAAGGCCGGAUAAAAGUGGAGGGGGCAG, the self-cleavage was found to be 0.153. With AACACUGCCAAUGCCGGUCCCAAGCCCGGCUAAAAGUGGAGGGGUCGG, the self-cleavage was 0.573. As for AACACUGCCAAUGCCGGUCCCAAGCCCUGAUAAAAGUGGAGGGUGCGG, the figure is 0.879.

Regarding AACACUGCCAAUGCCAGUCCCAAGCCCGGAUAAAAGUGGAAGGGGCGG, the self-cleavage is 0.364. AACACGGCCAAUGCCGGUCCCAAGCACGGAUAAAAGUGGAGGGGGCGG: the self-cleavage was determined as 0.0837. For AACACUGCCAAUGCCGGUCCCAAGGCCGGAUAAAAGUGGAGAGGGCGG, the self-cleavage was 0.118. On to AACACUGCCAAUGCCGGUCCCAAGGCCGGAUAAAAGUUGAGGGGGCGG, for which the self-cleavage amounted to 0.131.

Consider AACACUGCCAAUGCCGGUCCCAAGCCCGGUUAAAAGGGGAGGGGGCGG, for which the self-cleavage was 0.912. For AACACUGACAAUGCCGGUCCCAGGCCCGGAUAAAAGUGGAGGGGGCGG, the self-cleavage was 0.0496. As for AACACUCCCAAUGACGGUCCCAAGCCCGGAUAAAAGUGGAGGGGGCGG, the self-cleavage is 0.0617. On to AACACUGCCAGUGCCGGUCCCAAGCCCGGAUAAAAGUGGAGGGGGCGC, for which the self-cleavage is 1.09. As for AACACUGCCAAUGCCGGUCCCAAGCCCGGAUAAACGUCGAGGGGGCGG, the figure is 0.921.

Consider AAAACUGCCAAUUCCGGUCCCAAGCCCGGAUAAAAGUGGAGGGGGCGG, for which the self-cleavage was 0.127. As to AACACUACCAAUGCCGGUCCCAAGCCCGGAUAAGAGUGGAGGGGGCGG, the self-cleavage was 0.111. In the case of AACACUGCCAAUGUCGGUCCCAAGCCCGGAUAAAAGUGGAGGGGUCGG it was 0.964; in that of AACACUGCGAAUGCCGGUCCCAAGCCCGAAUAAAAGUGGAGGGGGCGG, 0.596; in that of AACACUGCCAAUGACGGUCCCAAGCCCGGAUAAUAGUGGAGGGGGCGG, 0.866. In the case of ACCACUGCCAAUGCCGGUCCCUAGCCCGGAUAAAAGUGGAGGGGGCGG it was 0.0564. For the variant AACACUGCCAAUGCCGGUCCCAAGCCCGGAGAAAAUUGGAGGGGGCGG, the self-cleavage worked out at 0.374.

For AACACUGCCAAUGCGAGUCCCAAGCCCGGAUAAAAGUGGAGGGGGCGG, the self-cleavage came out at 0.498. As for AACACUGCCAAUGCCGGUCCCAAGCCCGGAUAAAAGUGGAGGGGCCGC, the figure is 0.89; as for AACACUGCCAAUGCCGGUCCCACGACCGGAUAAAAGUGGAGGGGGCGG, 0.066.

Consider AACAUUGCCAAUGCCGGUCCCAAUCCCGGAUAAAAGUGGAGGGGGCGG, for which the self-cleavage is 0.0614. Turning to AACACUGCCAAUGCCGGUCCCAUGCCCCGAUAAAAGUGGAGGGGGCGG, the self-cleavage came out at 0.249. In the case of AACACUGACAAUGCCGUUCCCAAGCCCGGAUAAAAGUGGAGGGGGCGG it was 0.0971; in that of AACACCGCCAAUGCCGUUCCCAAGCCCGGAUAAAAGUGGAGGGGGCGG, 0.072; in that of AACCCUGCCAAUGCCGGUCCCAAGCCCGGAUAAAAGCGGAGGGGGCGG, 0.122. As for GACACUGCCAAUGCCGGUCCCAAGCCCGGAUAAAAGUGGAGGGCGCGG, the figure is 0.251. On to AACAAUGCCAAUGCCGGUCCCAAGCCGGGAUAAAAGUGGAGGGGGCGG, for which the self-cleavage worked out at 0.0807.

With GACACAGCCAAUGCCGGUCCCAAGCCCGGAUAAAAGUGGAGGGGGCGG, the self-cleavage came to 0.346. As for AACACCGCCAAUGCCGGUCCCAAGCCCGGAUAAAAGUCGAGGGGGCGG, the self-cleavage came to 0.249. Take AACACUGCCACUGCCCGUCCCAAGCCCGGAUAAAAGUGGAGGGGGCGG: the self-cleavage was found to be 0.187. On to AACACUGCCAAUGCCGGUCCCAAGCCCGGAUAAAGGUGGAGGGAGCGG, for which the self-cleavage was 0.808. In the case of AACACUACCAAUGCCGGUCCCAAGCCCAGAUAAAAGUGGAGGGGGCGG it was 0.215; in that of AACACUGCCAAUGCCUGCCCCAAGCCCGGAUAAAAGUGGAGGGGGCGG, 0.351. Turning to AACACUGCCAAUGCGGGUCCCAAGCCCGGAUAAAAGUCGAGGGGGCGG, the self-cleavage worked out at 0.0527.
